# Reference: US20200262877A1, “ION CHANNEL-BINDING PEPTIDES AND METHODS OF USE THEREOF” (priority 2017, published 2020)
# Experiments:
# GABA = experiment: Ion channel panel (IonWorks Barracuda): GABA; assay type: cell-based; settings: 100% = no change, <100% = inhibition
# Outline: (§1)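 Transfected HEK293 or CHO cells were exposed for at least 5 min to peptides at 200 nM and 20 μM final, tested in duplicate, in HEPES-buffered physiological saline. Activation was taken as peptide-plus-agonist current over control current ×100, and inhibition as 1 minus that ratio ×100. Each channel's control was its own reference compound.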
# TRPV1 = target: T1, TRPV1 (Homo sapiens, UniProt Q8NER1); experiment: Ion channel panel (IonWorks Barracuda): TRPV1; assay type: cell-based; settings: 100% = no change, <100% = inhibition
# T1 construct: host or cells: HEK293 or CHO
# Outline: as §1
# Kv2.1 = target: T2, Kv2.1 (Homo sapiens, UniProt Q14721); experiment: cell-based; settings: 100% = no change, <100% = inhibition
# T2 construct: host or cells: HEK293 or CHO
# Outline: as §1
# Cav2.2 = target: T3, Cav2.2 (Homo sapiens, UniProt Q00975); experiment: cell-based; settings: 100% = no change, <100% = inhibition
# T3 construct: host or cells: HEK293 or CHO
# Outline: as §1
# Cav2.1 = target: T4, Cav2.1 (Homo sapiens, UniProt O00555); experiment: cell-based; settings: 100% = no change, <100% = inhibition
# T4 construct: host or cells: HEK293 or CHO
# Outline: as §1
# 5HT3a = target: T5, 5HT3a (Homo sapiens, UniProt P46098); experiment: Ion channel panel (IonWorks Barracuda): 5HT3a; assay type: cell-based
# T5 construct: host or cells: HEK293 or CHO
# T5 sequence (P46098 whole entry, looked up): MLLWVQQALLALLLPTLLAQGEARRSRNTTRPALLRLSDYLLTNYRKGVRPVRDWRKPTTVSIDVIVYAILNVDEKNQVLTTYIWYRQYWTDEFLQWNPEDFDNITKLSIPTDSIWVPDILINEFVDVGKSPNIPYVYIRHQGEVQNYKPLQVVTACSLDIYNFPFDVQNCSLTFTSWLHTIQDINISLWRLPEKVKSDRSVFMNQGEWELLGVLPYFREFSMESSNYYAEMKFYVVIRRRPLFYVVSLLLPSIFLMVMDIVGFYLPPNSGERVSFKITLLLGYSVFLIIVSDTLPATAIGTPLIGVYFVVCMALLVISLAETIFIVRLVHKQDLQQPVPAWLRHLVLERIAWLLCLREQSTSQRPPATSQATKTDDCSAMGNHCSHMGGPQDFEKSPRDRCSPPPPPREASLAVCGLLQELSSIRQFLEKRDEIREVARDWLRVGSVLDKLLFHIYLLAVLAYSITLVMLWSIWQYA
# Outline: as §1
# Kir2.1 = target: T6, Kir2.1 (Homo sapiens, UniProt P63252); experiment: Ion channel panel (IonWorks Barracuda): Kir2.1; assay type: cell-based; settings: 100% = no change, <100% = inhibition
# T6 construct: host or cells: HEK293 or CHO
# Outline: as §1
# NR2B = target: T7, NR2B (Homo sapiens, UniProt Q13224); experiment: Ion channel panel (IonWorks Barracuda): NR2B; assay type: cell-based; settings: 100% = no change, <100% = inhibition
# T7 construct: host or cells: HEK293 or CHO
# Outline: as §1
# TRPA1 = target: T8, TRPA1 (Homo sapiens, UniProt O75762); experiment: Ion channel panel (IonWorks Barracuda): TRPA1; assay type: cell-based; settings: 100% = no change, <100% = inhibition
# T8 construct: host or cells: HEK293 or CHO
# Outline: as §1
# α4β2 = target: T9, α4β2 (Homo sapiens, UniProt P17787+P43681); experiment: Ion channel panel (IonWorks Barracuda): α4β2; assay type: cell-based; settings: 100% = no change, <100% = inhibition
# T9 construct: host or cells: HEK293 or CHO
# Outline: as §1
# hERG = hERG (Homo sapiens, UniProt Q12809); experiment: in vitro; settings: 100% = no change, <100% = inhibition
# Outline: as §1
# Nav1.5 = Nav1.5 (Homo sapiens, UniProt Q14524); experiment: in vitro; settings: 100% = no change; for Activity of Nav1.5 with peptide, expressed as a percentage of the reference compound: peptide at 0.2 μM; for Activity of Nav1.5 with peptide (percentage of the reference compound): peptide at 20 μM
# Outline: as §1
# α3β4 = target: T10, α3β4 (Homo sapiens, UniProt P30926+P32297); experiment: Ion channel panel (IonWorks Barracuda): α3β4; assay type: cell-based; settings: 100% = no change, <100% = inhibition
# T10 construct: host or cells: HEK293 or CHO
# Outline: as §1
# NR2A = target: T11, NR2A (Homo sapiens, UniProt Q12879); experiment: Ion channel panel (IonWorks Barracuda): NR2A; assay type: cell-based; settings: 100% = no change, <100% = inhibition
# T11 construct: host or cells: HEK293 or CHO
# Outline: as §1
# Nav1.7 = target: T12, Nav1.7 (Homo sapiens, UniProt Q15858); experiment: cell-based; assay type: cell-based; settings: 100% = no change; for Activity of Nav1.7 with peptide, expressed as a percentage of the reference compound: peptide at 0.2 μM; for Activity of Nav1.7 with peptide (percentage of the reference compound): peptide at 20 μM
# T12 construct: host or cells: HEK293 or CHO
# Kv1.1 = target: T13, Kv1.1 (Homo sapiens, UniProt Q09470); experiment: cell-based; assay type: cell-based; settings: 100% = no change, <100% = inhibition
# T13 construct: host or cells: HEK293 or CHO
# Outline: as §1
# Kv1.2 = target: T14, Kv1.2 (Homo sapiens, UniProt P16389); experiment: cell-based; assay type: cell-based; settings: 100% = no change, <100% = inhibition
# T14 construct: host or cells: HEK293 or CHO
# Outline: as §1
# Kv1.3 = target: T15, Kv1.3 (Homo sapiens, UniProt P22001); experiment: cell-based; assay type: cell-based; settings: 100% = no change, <100% = inhibition
# T15 construct: host or cells: HEK293 or CHO
# Outline: as §1
# [1] = first of two Nav1.5 columns (probably TP1)
# [2] = second of two Nav1.5 columns (probably TP2)
# [3] = first of two Nav1.7 columns (probably TP1)
# [4] = second of two Nav1.7 columns (probably TP2)
# T12 sequence (Q15858 whole entry): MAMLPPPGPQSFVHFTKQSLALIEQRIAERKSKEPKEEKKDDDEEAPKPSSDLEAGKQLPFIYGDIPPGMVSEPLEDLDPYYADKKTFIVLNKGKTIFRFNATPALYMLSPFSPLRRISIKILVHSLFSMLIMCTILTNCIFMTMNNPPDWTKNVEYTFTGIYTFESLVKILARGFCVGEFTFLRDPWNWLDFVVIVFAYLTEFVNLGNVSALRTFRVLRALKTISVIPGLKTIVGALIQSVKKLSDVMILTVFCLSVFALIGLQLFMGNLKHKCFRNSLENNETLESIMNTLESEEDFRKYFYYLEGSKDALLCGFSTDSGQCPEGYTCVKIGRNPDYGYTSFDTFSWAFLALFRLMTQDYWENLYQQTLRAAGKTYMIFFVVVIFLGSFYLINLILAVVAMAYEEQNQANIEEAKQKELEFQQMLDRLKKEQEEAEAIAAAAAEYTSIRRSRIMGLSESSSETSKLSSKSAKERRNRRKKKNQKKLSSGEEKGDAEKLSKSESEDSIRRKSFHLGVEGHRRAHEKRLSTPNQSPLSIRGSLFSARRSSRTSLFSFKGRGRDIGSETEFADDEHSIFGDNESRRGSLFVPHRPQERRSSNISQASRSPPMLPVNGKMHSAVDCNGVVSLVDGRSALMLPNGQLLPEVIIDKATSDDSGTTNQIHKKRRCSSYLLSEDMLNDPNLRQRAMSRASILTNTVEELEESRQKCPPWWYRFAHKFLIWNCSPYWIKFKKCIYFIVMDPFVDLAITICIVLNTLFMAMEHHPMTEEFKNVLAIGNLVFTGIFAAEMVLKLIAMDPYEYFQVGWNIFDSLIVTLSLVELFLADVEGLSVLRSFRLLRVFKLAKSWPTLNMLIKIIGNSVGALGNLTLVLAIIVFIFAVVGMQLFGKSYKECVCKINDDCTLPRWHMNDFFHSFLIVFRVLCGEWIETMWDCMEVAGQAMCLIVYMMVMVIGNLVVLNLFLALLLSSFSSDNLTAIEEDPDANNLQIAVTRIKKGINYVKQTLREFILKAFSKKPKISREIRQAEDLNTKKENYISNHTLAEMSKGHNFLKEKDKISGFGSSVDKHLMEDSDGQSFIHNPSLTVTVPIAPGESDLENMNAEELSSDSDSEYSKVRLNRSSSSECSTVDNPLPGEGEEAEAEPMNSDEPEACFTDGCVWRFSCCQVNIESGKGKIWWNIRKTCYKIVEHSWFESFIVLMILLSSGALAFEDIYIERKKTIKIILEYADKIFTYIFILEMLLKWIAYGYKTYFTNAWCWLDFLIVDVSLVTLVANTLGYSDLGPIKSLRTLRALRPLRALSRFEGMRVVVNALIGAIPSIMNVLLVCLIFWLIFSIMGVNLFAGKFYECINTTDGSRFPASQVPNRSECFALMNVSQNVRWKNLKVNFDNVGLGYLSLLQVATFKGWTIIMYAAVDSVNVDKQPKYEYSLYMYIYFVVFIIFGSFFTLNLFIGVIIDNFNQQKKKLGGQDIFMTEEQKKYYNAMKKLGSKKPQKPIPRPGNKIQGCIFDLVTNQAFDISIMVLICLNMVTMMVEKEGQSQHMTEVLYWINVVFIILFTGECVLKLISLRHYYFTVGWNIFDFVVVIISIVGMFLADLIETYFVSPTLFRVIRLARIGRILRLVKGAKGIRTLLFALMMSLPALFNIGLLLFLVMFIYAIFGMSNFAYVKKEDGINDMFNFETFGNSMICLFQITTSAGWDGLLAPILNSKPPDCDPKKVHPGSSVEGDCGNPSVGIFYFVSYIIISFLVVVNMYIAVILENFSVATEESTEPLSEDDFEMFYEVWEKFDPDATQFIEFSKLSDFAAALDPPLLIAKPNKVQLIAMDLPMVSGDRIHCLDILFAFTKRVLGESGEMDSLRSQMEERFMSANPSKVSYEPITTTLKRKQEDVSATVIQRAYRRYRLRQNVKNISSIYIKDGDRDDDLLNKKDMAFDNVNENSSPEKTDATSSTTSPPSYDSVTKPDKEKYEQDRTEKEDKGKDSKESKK
# Nav1.5, sequence (Q14524 whole entry): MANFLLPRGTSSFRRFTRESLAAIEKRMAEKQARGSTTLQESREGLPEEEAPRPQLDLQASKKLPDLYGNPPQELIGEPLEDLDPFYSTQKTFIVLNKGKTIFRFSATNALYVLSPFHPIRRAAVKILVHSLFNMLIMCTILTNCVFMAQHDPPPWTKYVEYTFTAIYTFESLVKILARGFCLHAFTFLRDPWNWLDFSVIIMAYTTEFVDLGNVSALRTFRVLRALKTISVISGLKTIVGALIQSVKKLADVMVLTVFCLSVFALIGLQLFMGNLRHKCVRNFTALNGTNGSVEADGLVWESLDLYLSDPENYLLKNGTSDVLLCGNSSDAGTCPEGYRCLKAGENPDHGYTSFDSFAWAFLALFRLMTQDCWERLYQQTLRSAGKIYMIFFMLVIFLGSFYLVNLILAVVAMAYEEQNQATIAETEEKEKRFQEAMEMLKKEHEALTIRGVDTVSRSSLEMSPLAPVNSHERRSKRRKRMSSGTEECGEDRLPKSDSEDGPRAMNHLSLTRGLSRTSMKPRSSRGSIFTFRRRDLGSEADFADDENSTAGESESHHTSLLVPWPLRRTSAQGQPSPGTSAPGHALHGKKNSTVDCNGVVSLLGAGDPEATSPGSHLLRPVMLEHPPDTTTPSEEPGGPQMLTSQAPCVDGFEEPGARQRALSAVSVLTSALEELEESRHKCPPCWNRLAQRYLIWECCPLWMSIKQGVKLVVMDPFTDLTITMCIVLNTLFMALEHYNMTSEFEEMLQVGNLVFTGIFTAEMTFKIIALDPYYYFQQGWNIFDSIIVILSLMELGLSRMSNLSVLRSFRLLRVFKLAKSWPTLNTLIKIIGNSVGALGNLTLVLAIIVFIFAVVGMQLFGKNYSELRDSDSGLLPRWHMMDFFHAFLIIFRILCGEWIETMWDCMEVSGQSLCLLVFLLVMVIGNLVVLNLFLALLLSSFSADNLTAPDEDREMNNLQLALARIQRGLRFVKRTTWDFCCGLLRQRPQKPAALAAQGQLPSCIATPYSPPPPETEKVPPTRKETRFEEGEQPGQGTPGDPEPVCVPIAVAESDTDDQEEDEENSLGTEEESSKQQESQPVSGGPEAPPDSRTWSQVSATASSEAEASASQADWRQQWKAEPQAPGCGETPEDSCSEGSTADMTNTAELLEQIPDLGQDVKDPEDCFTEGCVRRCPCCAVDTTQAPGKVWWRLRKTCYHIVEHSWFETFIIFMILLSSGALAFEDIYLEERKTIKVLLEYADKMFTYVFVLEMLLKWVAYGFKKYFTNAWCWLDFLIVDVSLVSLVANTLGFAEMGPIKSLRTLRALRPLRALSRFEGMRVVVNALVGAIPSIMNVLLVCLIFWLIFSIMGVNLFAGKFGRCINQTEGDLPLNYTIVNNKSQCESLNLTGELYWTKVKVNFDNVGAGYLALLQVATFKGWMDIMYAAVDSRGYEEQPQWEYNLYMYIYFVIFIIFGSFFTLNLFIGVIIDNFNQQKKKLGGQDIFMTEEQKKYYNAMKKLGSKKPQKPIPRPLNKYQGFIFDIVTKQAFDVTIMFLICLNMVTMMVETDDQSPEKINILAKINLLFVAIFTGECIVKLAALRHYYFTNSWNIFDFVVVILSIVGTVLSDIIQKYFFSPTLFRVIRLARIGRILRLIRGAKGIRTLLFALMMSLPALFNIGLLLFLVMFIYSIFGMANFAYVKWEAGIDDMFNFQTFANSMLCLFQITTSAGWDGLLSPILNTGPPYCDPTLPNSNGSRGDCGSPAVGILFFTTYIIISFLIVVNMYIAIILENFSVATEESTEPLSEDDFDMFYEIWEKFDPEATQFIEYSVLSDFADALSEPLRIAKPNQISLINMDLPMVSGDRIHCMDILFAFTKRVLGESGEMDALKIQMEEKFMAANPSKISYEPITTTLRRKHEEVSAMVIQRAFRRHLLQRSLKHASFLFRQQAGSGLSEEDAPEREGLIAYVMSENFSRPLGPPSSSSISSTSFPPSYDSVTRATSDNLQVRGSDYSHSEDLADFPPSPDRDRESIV
# T2 sequence (Q14721 whole entry): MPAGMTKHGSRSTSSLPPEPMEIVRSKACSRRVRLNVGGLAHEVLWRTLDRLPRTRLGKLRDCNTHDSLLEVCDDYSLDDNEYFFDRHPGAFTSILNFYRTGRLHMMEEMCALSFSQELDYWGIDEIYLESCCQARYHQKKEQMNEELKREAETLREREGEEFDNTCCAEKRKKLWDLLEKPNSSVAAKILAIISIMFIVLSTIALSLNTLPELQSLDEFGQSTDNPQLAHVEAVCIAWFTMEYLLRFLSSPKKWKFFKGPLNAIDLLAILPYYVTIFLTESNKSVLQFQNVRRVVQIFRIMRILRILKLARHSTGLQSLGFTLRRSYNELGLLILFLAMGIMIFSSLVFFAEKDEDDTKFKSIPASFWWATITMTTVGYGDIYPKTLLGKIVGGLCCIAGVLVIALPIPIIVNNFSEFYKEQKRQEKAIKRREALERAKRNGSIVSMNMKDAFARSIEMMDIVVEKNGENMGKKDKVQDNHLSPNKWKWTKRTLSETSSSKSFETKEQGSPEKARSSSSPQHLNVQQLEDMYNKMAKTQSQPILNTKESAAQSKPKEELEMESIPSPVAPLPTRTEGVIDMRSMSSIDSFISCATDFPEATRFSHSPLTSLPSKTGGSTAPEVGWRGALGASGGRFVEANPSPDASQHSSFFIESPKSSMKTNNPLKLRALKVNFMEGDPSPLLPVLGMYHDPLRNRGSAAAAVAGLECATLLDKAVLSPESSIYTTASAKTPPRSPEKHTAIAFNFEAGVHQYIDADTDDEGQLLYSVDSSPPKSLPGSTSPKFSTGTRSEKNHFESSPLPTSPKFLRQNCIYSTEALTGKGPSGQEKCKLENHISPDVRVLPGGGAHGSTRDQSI
substance,measurement,setting,value
21 (GSAEIIRCSGTRECYAPCQKLTGCLNAKCMNKACKCYGCV) [compound 21],"Activity of GABA with peptide, expressed as a percentage of the reference compound",GABA; peptide at 0.2 μM,111%
same,Activity of GABA with peptide (percentage of the reference compound),GABA; peptide at 20 μM,123%
same,"Activity of TRPV1 with peptide, expressed as a percentage of the reference compound",TRPV1; peptide at 0.2 μM,106%
same,Activity of TRPV1 with peptide (percentage of the reference compound),TRPV1; peptide at 20 μM,86%
same,"Activity of Kv2.1 with peptide, expressed as a percentage of the reference compound",Kv2.1; peptide at 0.2 μM,110%
same,Activity of Kv2.1 with peptide (percentage of the reference compound),Kv2.1; peptide at 20 μM,108%
same,"Activity of Cav2.2 with peptide, expressed as a percentage of the reference compound",Cav2.2; peptide at 0.2 μM,98%
same,Activity of Cav2.2 with peptide (percentage of the reference compound),Cav2.2; peptide at 20 μM,105%
same,"Activity of Cav2.1 with peptide, expressed as a percentage of the reference compound",Cav2.1; peptide at 0.2 μM,103%
same,Activity of Cav2.1 with peptide (percentage of the reference compound),Cav2.1; peptide at 20 μM,106%
same,Activity of 5HT3a with peptide (percentage of the reference compound),5HT3a,91%
same,"Activity of 5HT3a with peptide, expressed as a percentage of the reference compound",5HT3a,87%
same,"Activity of Kir2.1 with peptide, expressed as a percentage of the reference compound",Kir2.1; peptide at 0.2 μM,105%
same,Activity of Kir2.1 with peptide (percentage of the reference compound),Kir2.1; peptide at 20 μM,101%
same,"Activity of NR2B with peptide, expressed as a percentage of the reference compound",NR2B; peptide at 0.2 μM,113%
same,Activity of NR2B with peptide (percentage of the reference compound),NR2B; peptide at 20 μM,105%
same,"Activity of TRPA1 with peptide, expressed as a percentage of the reference compound",TRPA1; peptide at 0.2 μM,119%
same,Activity of TRPA1 with peptide (percentage of the reference compound),TRPA1; peptide at 20 μM,95%
same,"Activity of a4b2 with peptide, expressed as a percentage of the reference compound",α4β2; peptide at 0.2 μM,102%
same,Activity of a4b2 with peptide (percentage of the reference compound),α4β2; peptide at 20 μM,85%
same,"Activity of hERG with peptide, expressed as a percentage of the reference compound",hERG; peptide at 0.2 μM,109%
same,Activity of hERG with peptide (percentage of the reference compound),hERG; peptide at 20 μM,72%
same,"Activity of Nav1.5 with peptide, expressed as a percentage of the reference compound",Nav1.5; [1],108%
same,"Activity of Nav1.5 with peptide, expressed as a percentage of the reference compound",Nav1.5; [2],105%
same,Activity of Nav1.5 with peptide (percentage of the reference compound),Nav1.5; [1],96%
same,Activity of Nav1.5 with peptide (percentage of the reference compound),Nav1.5; [2],91%
same,"Activity of a3b4 with peptide, expressed as a percentage of the reference compound",α3β4; peptide at 0.2 μM,102%
same,Activity of a3b4 with peptide (percentage of the reference compound),α3β4; peptide at 20 μM,93%
same,"Activity of NR2A with peptide, expressed as a percentage of the reference compound",NR2A; peptide at 0.2 μM,105%
same,Activity of NR2A with peptide (percentage of the reference compound),NR2A; peptide at 20 μM,103%
same,"Activity of Nav1.7 with peptide, expressed as a percentage of the reference compound",Nav1.7; [3],112%
same,"Activity of Nav1.7 with peptide, expressed as a percentage of the reference compound",Nav1.7; [4],120%
same,Activity of Nav1.7 with peptide (percentage of the reference compound),Nav1.7; [3],105%
same,Activity of Nav1.7 with peptide (percentage of the reference compound),Nav1.7; [4],123%
same,"Activity of Kv1.1 with peptide, expressed as a percentage of the reference compound",Kv1.1; peptide at 0.2 μM,106%
same,Activity of Kv1.1 with peptide (percentage of the reference compound),Kv1.1; peptide at 20 μM,98%
same,"Activity of Kv1.2 with peptide, expressed as a percentage of the reference compound",Kv1.2; peptide at 0.2 μM,52%
same,Activity of Kv1.2 with peptide (percentage of the reference compound),Kv1.2; peptide at 20 μM,36%
same,"Activity of Kv1.3 with peptide, expressed as a percentage of the reference compound",Kv1.3; peptide at 0.2 μM,65%
same,Activity of Kv1.3 with peptide (percentage of the reference compound),Kv1.3; peptide at 20 μM,5%
